In patent US20250179210A1 (Merck KGaA, published 2025):

Columns and labels:
[1] = target: T1, recombinant human (rh) CEACAM5 ECD (Syngene) (human, UniProt P06731 35-685); test: ELISA, 1 µg/ml coated antigen, antibody titrated; rhCEACAM5 ECD coated
T1 sequence: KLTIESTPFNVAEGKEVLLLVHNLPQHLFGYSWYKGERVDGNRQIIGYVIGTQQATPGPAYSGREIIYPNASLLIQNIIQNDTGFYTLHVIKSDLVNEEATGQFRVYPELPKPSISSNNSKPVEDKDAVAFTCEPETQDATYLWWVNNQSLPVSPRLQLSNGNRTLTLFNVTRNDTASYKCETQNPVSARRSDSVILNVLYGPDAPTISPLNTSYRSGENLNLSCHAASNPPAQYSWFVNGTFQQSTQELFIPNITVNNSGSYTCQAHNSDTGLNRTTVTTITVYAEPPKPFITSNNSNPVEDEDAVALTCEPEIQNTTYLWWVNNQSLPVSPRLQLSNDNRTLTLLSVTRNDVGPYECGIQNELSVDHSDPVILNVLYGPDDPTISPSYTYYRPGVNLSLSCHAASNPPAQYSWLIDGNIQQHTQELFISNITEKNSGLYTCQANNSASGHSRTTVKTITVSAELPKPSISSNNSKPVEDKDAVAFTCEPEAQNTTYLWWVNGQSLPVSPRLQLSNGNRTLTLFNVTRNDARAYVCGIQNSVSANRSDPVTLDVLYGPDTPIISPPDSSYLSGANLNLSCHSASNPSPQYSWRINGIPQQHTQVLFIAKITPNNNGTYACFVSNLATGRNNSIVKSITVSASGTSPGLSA

[2] = target: T2, human CEACAM5 expressed on human cancer cell lines (MKN-45, NCI-H441, SK-CO-1, SNU-16, LS174T) (human, UniProt P06731 35-685); test: cellular binding on MKN45 cells (FIG. 2)
T2 construct: Endogenous protein on cells; also called MKN45 cell line expressing human CEACAM5; CEACAM5-positive cell lines
T2 sequence: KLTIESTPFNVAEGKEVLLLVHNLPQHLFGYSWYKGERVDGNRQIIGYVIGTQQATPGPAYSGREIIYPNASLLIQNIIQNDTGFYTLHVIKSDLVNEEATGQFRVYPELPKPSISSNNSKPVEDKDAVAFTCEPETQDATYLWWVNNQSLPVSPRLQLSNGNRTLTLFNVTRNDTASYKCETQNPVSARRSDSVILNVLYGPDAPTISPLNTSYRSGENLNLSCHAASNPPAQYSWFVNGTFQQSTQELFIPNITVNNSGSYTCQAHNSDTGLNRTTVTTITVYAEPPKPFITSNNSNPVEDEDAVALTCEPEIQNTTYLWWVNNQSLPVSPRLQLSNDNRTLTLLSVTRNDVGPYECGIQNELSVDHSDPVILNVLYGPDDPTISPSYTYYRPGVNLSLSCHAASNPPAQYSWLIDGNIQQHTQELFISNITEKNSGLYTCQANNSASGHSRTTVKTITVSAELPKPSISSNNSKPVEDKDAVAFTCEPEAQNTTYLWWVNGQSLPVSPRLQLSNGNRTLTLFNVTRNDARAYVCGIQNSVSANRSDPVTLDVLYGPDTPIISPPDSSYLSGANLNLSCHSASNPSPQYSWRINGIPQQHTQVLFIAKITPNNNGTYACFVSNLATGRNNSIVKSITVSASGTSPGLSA

[3] = target: T3, BSA (bovine serum albumin) (bovine, UniProt P02769 25-607); test: ELISA on coated antigen, antibody titrated
T3 construct: Negative control; also called unrelated protein

[4] = target: T4, recombinant human CEACAM5 N-A1-B1 domain (Syngene) (human, UniProt P06731 35-320); test: ELISA on coated antigen, antibody titrated
T4 construct: also called rhN-A1-B1
T4 sequence: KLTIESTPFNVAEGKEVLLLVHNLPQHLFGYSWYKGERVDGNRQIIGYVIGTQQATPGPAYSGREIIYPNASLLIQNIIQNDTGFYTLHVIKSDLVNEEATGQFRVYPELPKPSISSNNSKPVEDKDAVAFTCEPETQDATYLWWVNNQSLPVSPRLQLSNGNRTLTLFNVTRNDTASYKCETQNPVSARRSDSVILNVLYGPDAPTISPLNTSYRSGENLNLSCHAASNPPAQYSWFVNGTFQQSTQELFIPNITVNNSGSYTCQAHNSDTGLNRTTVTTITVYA

[5] = target: T1, recombinant human (rh) CEACAM5 ECD …; test: ELISA on coated antigen, antibody titrated
[6] = target: T5, recombinant human CEACAM5 A3-B3 domain (Syngene) (human, UniProt P06731 499-685); test: ELISA on coated antigen, antibody titrated
T5 construct: also called rhA3-B3
T5 sequence: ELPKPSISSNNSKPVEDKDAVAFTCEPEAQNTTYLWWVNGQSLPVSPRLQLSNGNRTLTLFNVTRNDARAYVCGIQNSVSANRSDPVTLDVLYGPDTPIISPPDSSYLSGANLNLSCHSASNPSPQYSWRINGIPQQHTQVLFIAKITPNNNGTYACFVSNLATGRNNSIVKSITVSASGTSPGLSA

[7] = target: T6, recombinant human CEACAM5 A2-B2 domain (Syngene) (human, UniProt P06731 321-498); test: ELISA on coated antigen, antibody titrated
T6 construct: also called rhA2-B2 domain
T6 sequence: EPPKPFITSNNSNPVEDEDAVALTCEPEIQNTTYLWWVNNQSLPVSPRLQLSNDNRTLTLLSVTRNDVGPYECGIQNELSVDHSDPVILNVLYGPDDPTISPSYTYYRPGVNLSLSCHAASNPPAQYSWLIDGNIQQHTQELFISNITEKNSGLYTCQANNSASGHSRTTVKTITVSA

[8] = target: T6, recombinant human CEACAM5 A2-B2 domain …; test: ELISA, 1 µg/ml coated antigen, antibody titrated; rhA2-B2 domain coated
[9] = target: T2, human CEACAM5 expressed on human cancer …; test: flow cytometry (MFI), titration on MKN-45 cells
Protocol: The antibody's ability to bind its target protein on cells was determined by titrating the antibody on cells that express the target (e.g. human CEACAM5) and measuring the fluorescence MFI of the cells. Model cells for antibody binding comparison were the MKN45 cell line expressing human CEACAM5 as well as a CHO cell line expressing mfCEACAM5. Titration was done with 10-point ×4 dilution, curve starting concentration 2000 nM in assay buffer (PBS×1 containing 1% BSA).

T3 sequence (P02769 25-607 limits assumed): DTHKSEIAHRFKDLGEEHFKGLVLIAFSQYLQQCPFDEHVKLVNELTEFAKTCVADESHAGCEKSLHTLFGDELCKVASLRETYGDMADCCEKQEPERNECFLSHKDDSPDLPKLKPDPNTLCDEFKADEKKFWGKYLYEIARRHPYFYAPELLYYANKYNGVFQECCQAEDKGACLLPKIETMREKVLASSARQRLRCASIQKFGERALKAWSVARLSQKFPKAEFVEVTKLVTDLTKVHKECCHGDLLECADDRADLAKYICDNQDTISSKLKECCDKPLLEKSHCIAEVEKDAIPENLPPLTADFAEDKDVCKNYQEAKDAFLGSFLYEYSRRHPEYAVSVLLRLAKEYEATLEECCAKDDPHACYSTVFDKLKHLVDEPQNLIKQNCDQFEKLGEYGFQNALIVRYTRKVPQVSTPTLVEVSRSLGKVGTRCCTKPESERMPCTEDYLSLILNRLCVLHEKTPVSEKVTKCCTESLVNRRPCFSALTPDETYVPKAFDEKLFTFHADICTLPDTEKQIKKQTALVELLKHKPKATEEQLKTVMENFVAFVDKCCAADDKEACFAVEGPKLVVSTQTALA

B1: mAb1 (final sequence-optimized anti-CEACAM5 antibody so8G4) (antibody, human IgG1, kappa)
heavy: EVQLQESGPGLVKPSQTLSLTCTVSDGSVSRGGYYLTWIRQHPGKGLEWIGYIYYSGSTYFNPSLRSRVTMSVDTSKNQFSLKLSSVTAADTAVYYCARGIAVAPFDYWGQGTLVTVSSASTKGPSVFPLAPSSKSTSGGTAALGCLVKDYFPEPVTVSWNSGALTSGVHTFPAVLQSSGLYSLSSVVTVPSSSLGTQTYICNVNHKPSNTKVDKRVEPKSCDKTHTCPPCPAPPVAGPSVFLFPPKPKDTLMISRTPEVTCVVVDVSHEDPEVKFNWYVDGVEVHNAKTKPREEQYNSTYRVVSVLTVLHQDWLNGKEYKCKVSNKALPSSIEKTISKAKGQPREPQVYTLPPSREEMTKNQVSLTCLVKGFYPSDIAVEWESNGQPENNYKTTPPVLDSDGSFFLYSKLTVDKSRWQQGNVFSCSVMHEALHNHYTQKSLSLSPG
light: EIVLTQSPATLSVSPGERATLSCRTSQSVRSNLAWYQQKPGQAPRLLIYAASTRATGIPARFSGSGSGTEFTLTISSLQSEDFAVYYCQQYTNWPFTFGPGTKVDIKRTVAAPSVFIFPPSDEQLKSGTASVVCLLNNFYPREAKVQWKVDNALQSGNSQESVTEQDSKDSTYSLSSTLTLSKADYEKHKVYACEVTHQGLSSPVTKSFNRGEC
notes: Labelled with pHrodo in the internalization assay
For B1, the EC50 [1] was 153 pM, the EC50 [2] was 8300 pM and the binding result [3] was “no binding (tested: 4000 pM)”. For the same binder, the binding result [4] was “no binding (tested: 4000 pM)”, the “EC50 (read off the curve)” value [5] was about 200 pM and the binding result [6] was “no binding (tested: 4000 pM)”. The “EC50 (read off the curve)” value [7] was about 200 pM, the EC50 [8] was 167 pM and the EC50 [9] was 10600 pM.
